Results: the RNAGym collection of RNA variant scans (doi:10.1073/pnas.2313332121)

B1: TPR t1 (parent)
chain: GACCAAUCUGCCCUCAGAGCUCGAGAACAUCUUCGGAUGCAGAGGAGGCAGGCUUCGGUGGCGCGAUAGCGCCAACGUCCUCAACCUCCAAUGCAUCCCACCACAUGAUGAUGCCUGAAGAGCCUUGGUUUUUUG

Variants of: B1
Experiment: polymerase ribozyme fitness, log enrichment relative to wild type (log ratio); higher = more active; in vitro selection for triplet polymerase activity
Summary of the method: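 Fitness measures genotype enrichment against wild-type enrichment on a logarithmic scale, with inverse-variance-weighted averaging of replicates. The logarithm is base 2, and genotypes were kept only with ≥10 input reads and ≥1 read per output in Illumina sequencing. The sequenced libraries came from one triplicate in vitro selection round, including frozen incubation at −7 °C, of PCR-built, transcribed mutant libraries of each subunit of a heterodimeric triplet polymerase ribozyme.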

In order of rising “polymerase ribozyme fitness (log ratio)” value:
1. C12U A27G G47A G51A G58A G61C A103G A121G  -7.4
2. C13G C22U G63U C79U G122A  -7.09
3. C12U C13U G42U G51C U116G  -7.04
4. C12U U33G A105U U112G U125A  -7
5. C12G G19C G23C U59C G60U  -6.79
6. C12G C34G C114A  -6.75
7. C13A A26U A46U U81G C114U  -6.71
8. C13G A37G G71U C102G A103U U112A G117U G127C U130G  -6.56
9. C13A A18G C49A C94U G117U  -6.43
10. C12G U14G A24G C49A G61U G77U C104U  -6.42
11. C13G C34U  -6.06
12. C12U G39U G113U U116G  -5.84
13. C12U C53G C97A  -5.8
14. C13A U21C G57A U59G A75U C86U C97U  -5.71
15. C13G C20U C64U C104A A111U U130G  -5.67
16. C12U C76G C79A C99U U126C  -5.59
17. C12G U33G C70U U87G A118U U125A  -5.53
18. C13A G61C A90C  -5.48
19. C13A C22A  -5.41
20. C13A A41G G69A  -5.37
21. C13A G48A U109A G120C  -5.29
22. C13A A43C G93C  -5.21
23. C12G G45A G107U  -5.21
24. C13A G47A C64U G93U C101G U131A  -5.14
25. C13A C22U  -4.99
26. C12U C86U A103U A111U  -4.99
27. C13A C53G U54A G117C  -4.98
28. C13A A18G C73A  -4.96
29. C12U C22A  -4.93
30. C13A G60U G69U  -4.92
31. C13G A66U C79U C102A  -4.83
32. C12G U33G  -4.76
33. C12G G39U G60U C80G C123U  -4.73
34. C13A A18C  -4.69
35. C12G C15G G45A G61C  -4.58
36. C12G C15A A108G A111C  -4.53
37. C12U C22U U59C C85G  -4.46
38. C13A A16U G117U  -4.37
39. C12U G63U C85G C88A  -4.33
40. C13A A66U C101A  -4.3
41. C12U A46U C49U G63C A90C  -4.26
42. C12U A27G A66C C73A U78C C101A  -4.25
43. C13A A43U G60C C88A  -4.2
44. C13A G47U G63U  -4.2
45. C13A G117A  -4.07
46. C12G C20G C79U C82U A91U G107C G117A  -4
47. C13A A18U C53U  -3.95
48. C12G A26G C98U  -3.76
49. C13A C85U A100C  -3.76
50. C13A G57A G127C  -3.7
51. C13A G52A U59C G113A  -3.69
52. C12G C49A G63U C72U C89A  -3.61
53. C12G G65A  -3.6
54. C12U C31U G77U U87C C123U  -3.57
55. C12G C15U C56U G77C A83C C88A U106A U132A  -3.55
56. C13A G35A C124G  -3.52
57. C12U A18C A29G C82U U92A  -3.51
58. C12U U109A  -3.34
59. C13G A100C  -3.31
60. C13A C40A G93A A118U U129C  -3.28
61. C12G A41U A83U G113C  -3.27
62. C12G C40A A50C C80A A84C C104U  -3.24
63. C13A A29G  -3.22
64. C13A A46U A74U  -3.21
65. C12U A108G U130A  -3.19
66. C13G A83C C94G A119U C123G G127C G135U  -3.17
67. C13A G47C  -3.14
68. C13A G63U  -3.09
69. C12G C22G  -3.07
70. C13A A46G G63C  -2.95
71. C12U C13U C97A C123U C124A  -2.92
72. C13A U21A A37C G93A  -2.9
73. C12U U96G G128C  -2.88
74. C13A C114U  -2.86
75. C12G U54C G61C  -2.85
76. C12G C20U C72U G117U  -2.78
77. C13G A37U U38C  -2.77
78. C12U U21A A29G G63A  -2.72
79. C12U G17U C94U G113A  -2.71
80. C12U G47A C102A  -2.63
81. C12U C15G C79A C85G G120A  -2.63
82. C12U C34A C53U C72U  -2.62
83. C13A U21A U54C C56G C86A U106G C124U  -2.59
84. C12U C13G C70G  -2.49
85. C13A U87A U106A  -2.48
86. C12U C13G C20A A37G A46U G77A G120A  -2.45
87. C13G A46U  -2.39
88. C13A G63C  -2.37
89. C12G C15A U78A  -2.34
90. C12U C34A  -2.28
91. C12U A18U  -2.21
92. C12U A119C A121C  -2.21
93. C13A C88A  -2.19
94. C13A U78A  -2.18
95. C12G U96G G117U  -2.18
96. C13A A50G G71A  -2.13
97. C13G A74C  -2.12
98. C12U A111U  -2.01
99. C12U C72U C104A U125G  -1.99
100. C12A U81A  -1.96
101. C13A G60A  -1.95
102. C13A G45U G69U  -1.92
103. C12U A29U G52C C73U  -1.91
104. C13A A24G U32C C94U C104U G120A  -1.91
105. C12G U21C A29U C123U U131A  -1.87
106. C12G C49G C70A C97U  -1.84
107. C12U A16G C73U C102A  -1.8
108. C12U G39C G127C U133A  -1.79
109. C12G C73G C88G  -1.78
110. C12G C82U A105U U106A U109G  -1.76
111. C12U G117C  -1.68
112. C12G C114U  -1.65
113. C12U A43U C56G  -1.63
114. C13A  -1.61
115. C12U C49U C97U  -1.6
116. C12G G36U U132A  -1.56
117. C13G  -1.53
118. C13A C72U A83C A84G U112C  -1.46
119. C12U A75G G128A  -1.43
120. C13A U112G A121G  -1.42
121. C12G C20U C76A  -1.37
122. C13A A18G C98G G120C  -1.26
123. C12U C56A C73A U78C A111G U129G  -1.25
124. C12G A43G  -1.17
125. C12U A66G A74U  -1.17
126. C12U U14A C88G  -1.12
127. C12U A37U G60C  -1.06
128. C12G G48A G60A G93A  -1.03
129. C12U G48A U131A  -0.967
130. C12G C28U  -0.928
131. C12G G44U G60U A100U  -0.779
132. C12G C89U  -0.711
133. C12G U21A G71U U78A A121U  -0.676
134. C12U G45A G48A  -0.563
135. C13A C53A G120U U132C  -0.539
136. C12U C76U  -0.504
137. C13A C85G C123U  -0.463
138. C13A G120U  -0.457
139. C13G A43U C76U C123G  -0.345
140. C12U G36U  -0.34
141. C12G C88U A105U C123A  -0.335
142. C12U C62G G122U  -0.331
143. C13A A16U G120C  -0.322
144. C12G C20U C123U U125C  -0.31
145. C13A C72G A83G A121U C123U  -0.305
146. C12U G47U C73A C86G G122A  -0.298
147. C12U C72U U130G  -0.295
148. C12U A43C A90U  -0.274
149. C12U A100U  -0.242
150. C12U G122A  -0.00508
151. C12U C40U A90G  0.0487
152. C12U C79U  0.083
153. C12U U14G C79U  0.109
154. C12G C72U  0.127
155. C12U G60C U112G  0.137
156. C12U A18G C20U C94U G117U  0.203
157. C12U U132A  0.262
158. C12U G117U  0.316
159. C12U U32C U81A U112A  0.32
160. C12U G60U  0.415
161. C12U A37U C85U G93C G120A  0.532
162. C12G G44U A90C A121U  0.668
163. C12U A111G  0.95
164. C12G C123U  1.34
165. C12G U92C G120U  1.41
166. C12G C72A C104U C123U C124A  1.79
167. C12U G120U  2.06
